Columns and labels:
[1] = molecular target: T1, human LH receptor, wild type (human, UniProt P22888 27-699); experiment: competition of 125I-hCG binding to cells expressing LHR
T1 construct: whole, on cells; stably expressed in HEK 293 cells; This holds for all LHR mutants and LHR peptides below; also called LH/CG receptor
Experimental: The Kd values were determined by Scatchard plots. For intracellular cAMP assay, cells were washed twice with Dulbecco's modified Eagle's media and incubated in the media containing isobutylmethylxanthine (0.1 mg/ml) for 15 minutes. Increasing concentrations of hormone were then added and the incubation was continued for 45 minutes at 37° C. After removing the media, the cells were rinsed once with fresh media without isobutylmethylxanthine, lysed in 70% ethanol, freeze-thawed in liquid nitrogen, and scraped.

[2] = molecular target: T2, human FSH (human, UniProt P01215 25-116; P01225 19-129); experiment: 125I-FSH competition binding on HEK293 cells, Scatchard
T2 construct: heterodimer, purchased from the National Hormone and Pituitary Program; also called follicle stimulating hormone
Experimental: The Kd values were determined by Scatchard plots. Truncated exodomain was solubilized in Nonidet P-40 and assayed for hormone binding as described previously. For intracellular cAMP assay, cells were washed twice with Dulbecco's modified Eagle's media and incubated in the media containing isobutylmethylxanthine (0.1 mg/ml) for 15 minutes. […] After removing the media, the cells were rinsed once with fresh media without isobutylmethylxanthine, lysed in 70% ethanol, freeze-thawed in liquid nitrogen, and scraped. After pelleting cell debris at 16,000×g for 10 minutes at 4° C., the supernatant was collected, dried under vacuum and resuspended in 10 μl of the cAMP assay buffer, which was provided by the manufacturer. cAMP concentrations were determined with an ¹²⁵I-cAMP assay kit (Amersham) following the manufacturer's instruction and validated for use in our laboratory. Exoloop 3 of FSHR was modeled based on the crystal structure of rhodopsin as a template.

T1 sequence (P22888 27-699): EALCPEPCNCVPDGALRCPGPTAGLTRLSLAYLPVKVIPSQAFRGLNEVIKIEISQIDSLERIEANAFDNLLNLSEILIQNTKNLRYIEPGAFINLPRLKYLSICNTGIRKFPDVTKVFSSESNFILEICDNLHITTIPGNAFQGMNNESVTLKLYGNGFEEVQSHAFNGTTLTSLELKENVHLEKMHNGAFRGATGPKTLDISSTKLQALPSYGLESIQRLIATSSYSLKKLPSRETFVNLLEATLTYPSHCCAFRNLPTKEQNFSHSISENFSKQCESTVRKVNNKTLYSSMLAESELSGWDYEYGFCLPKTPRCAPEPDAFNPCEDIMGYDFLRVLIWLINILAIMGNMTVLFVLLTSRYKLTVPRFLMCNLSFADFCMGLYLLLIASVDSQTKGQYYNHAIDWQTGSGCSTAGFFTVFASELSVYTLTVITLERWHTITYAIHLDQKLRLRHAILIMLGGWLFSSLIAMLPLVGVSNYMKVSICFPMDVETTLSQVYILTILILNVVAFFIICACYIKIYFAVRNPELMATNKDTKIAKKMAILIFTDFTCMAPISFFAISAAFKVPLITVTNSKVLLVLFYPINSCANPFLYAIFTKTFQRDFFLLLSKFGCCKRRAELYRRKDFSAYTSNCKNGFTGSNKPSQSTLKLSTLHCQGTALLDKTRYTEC

| Binder | potency relative to LHR^exo3 in inhibiting ^125I-hCG binding to LHR [1] | Kd [2] |
| --- | --- | --- |
| hCG (ligand, purchased from the National Hormone and Pituitary Program; also called human chorionic gonadotropin) chain 1: not shown chain 2: SKEPLRPRCRPINATLAVEKEGCPVCITVNTTICAGYCPTMTRVLQGVLPALPQVVCNYRDVRFESIRLPGCPRGVNPVVSYAVALSCQCALCRRSTTDCGGPKDHPLTCDDPRFQDSSSSKAPPPSLPSPSRLPGPSDTPILPQ | > 10000 fold | – |
| FSHR^K590F (receptor) CHHRICHCSNRVFLCQESKVTEIPSDLPRNAIELRFVLTKLRVIQKGAFSGFGDLEKIEISQNDVLEVIEADVFSNLPKLHEIRIEKANNLLYINPEAFQNLPNLQYLLISNTGIKHLPDVHKIHSLQKVLLDIQDNINIHTIERNSFVGLSFESVILWLNKNGIQEIHNCAFNGTQLDELNLSDNNNLEELPNDVFHGASGPVILDISRTRIHSLPSYGLENLKKLRARSTYNLKKLPTLEKLVALMEASLTYPSHCCAFANWRRQISELHPICNKSILRQEVDYMTQARGQRSSLAEDNESSYSRGFDMTYTEFDYDLCNEVVDVTCSPKPDAFNPCEDIMGYNILRVLIWFISILAITGNIIVLVILTTSQYKLTVPRFLMCNLAFADLCIGIYLLLIASVDIHTKSQYHNYAIDWQTGAGCDAAGFFTVFASELSVYTLTAITLERWHTITHAMQLDCKVQLRHAASVMVMGWIFAFAAALFPIFGISSYMKVSICLPMDIDSPLSQLYVMSLLVLNVLAFVVICGCYIHIYLTVRNPNIVSSSSDTRIAKRMAMLIFTDFLCMAPISFFAISASLKVPLITVSKAFILLVLFHPINSCANPFLYAIFTKNFRRDFFILLSKCGCYEMQAQIYRTETSSTVHNTHPRNGHCSSAPRVTSGSTYILVPLSHLAQN | – | 50 nM |
| FSHR^K590L (receptor) CHHRICHCSNRVFLCQESKVTEIPSDLPRNAIELRFVLTKLRVIQKGAFSGFGDLEKIEISQNDVLEVIEADVFSNLPKLHEIRIEKANNLLYINPEAFQNLPNLQYLLISNTGIKHLPDVHKIHSLQKVLLDIQDNINIHTIERNSFVGLSFESVILWLNKNGIQEIHNCAFNGTQLDELNLSDNNNLEELPNDVFHGASGPVILDISRTRIHSLPSYGLENLKKLRARSTYNLKKLPTLEKLVALMEASLTYPSHCCAFANWRRQISELHPICNKSILRQEVDYMTQARGQRSSLAEDNESSYSRGFDMTYTEFDYDLCNEVVDVTCSPKPDAFNPCEDIMGYNILRVLIWFISILAITGNIIVLVILTTSQYKLTVPRFLMCNLAFADLCIGIYLLLIASVDIHTKSQYHNYAIDWQTGAGCDAAGFFTVFASELSVYTLTAITLERWHTITHAMQLDCKVQLRHAASVMVMGWIFAFAAALFPIFGISSYMKVSICLPMDIDSPLSQLYVMSLLVLNVLAFVVICGCYIHIYLTVRNPNIVSSSSDTRIAKRMAMLIFTDFLCMAPISFFAISASLKVPLITVSKALILLVLFHPINSCANPFLYAIFTKNFRRDFFILLSKCGCYEMQAQIYRTETSSTVHNTHPRNGHCSSAPRVTSGSTYILVPLSHLAQN | – | 7.2 nM |
